Measured values from patent US20050059132A1.

Columns and labels:
[1] = biological target: APC mutant QGNSEDY (ALL) (human) (UniProt P04070); assay: cell-based or functional assay
[2] = biological target: human wild-type activated protein C (human) (UniProt P04070); assay: cell-based or functional assay
[3] = biological target: R506Q FVa (FVa Leiden, activated FV:Q506), P12259
[4] = biological target: human plasma factor Va (normal, wild-type), P12259
human plasma factor Va (normal, wild-type), P12259, sequence (P12259 29-2224): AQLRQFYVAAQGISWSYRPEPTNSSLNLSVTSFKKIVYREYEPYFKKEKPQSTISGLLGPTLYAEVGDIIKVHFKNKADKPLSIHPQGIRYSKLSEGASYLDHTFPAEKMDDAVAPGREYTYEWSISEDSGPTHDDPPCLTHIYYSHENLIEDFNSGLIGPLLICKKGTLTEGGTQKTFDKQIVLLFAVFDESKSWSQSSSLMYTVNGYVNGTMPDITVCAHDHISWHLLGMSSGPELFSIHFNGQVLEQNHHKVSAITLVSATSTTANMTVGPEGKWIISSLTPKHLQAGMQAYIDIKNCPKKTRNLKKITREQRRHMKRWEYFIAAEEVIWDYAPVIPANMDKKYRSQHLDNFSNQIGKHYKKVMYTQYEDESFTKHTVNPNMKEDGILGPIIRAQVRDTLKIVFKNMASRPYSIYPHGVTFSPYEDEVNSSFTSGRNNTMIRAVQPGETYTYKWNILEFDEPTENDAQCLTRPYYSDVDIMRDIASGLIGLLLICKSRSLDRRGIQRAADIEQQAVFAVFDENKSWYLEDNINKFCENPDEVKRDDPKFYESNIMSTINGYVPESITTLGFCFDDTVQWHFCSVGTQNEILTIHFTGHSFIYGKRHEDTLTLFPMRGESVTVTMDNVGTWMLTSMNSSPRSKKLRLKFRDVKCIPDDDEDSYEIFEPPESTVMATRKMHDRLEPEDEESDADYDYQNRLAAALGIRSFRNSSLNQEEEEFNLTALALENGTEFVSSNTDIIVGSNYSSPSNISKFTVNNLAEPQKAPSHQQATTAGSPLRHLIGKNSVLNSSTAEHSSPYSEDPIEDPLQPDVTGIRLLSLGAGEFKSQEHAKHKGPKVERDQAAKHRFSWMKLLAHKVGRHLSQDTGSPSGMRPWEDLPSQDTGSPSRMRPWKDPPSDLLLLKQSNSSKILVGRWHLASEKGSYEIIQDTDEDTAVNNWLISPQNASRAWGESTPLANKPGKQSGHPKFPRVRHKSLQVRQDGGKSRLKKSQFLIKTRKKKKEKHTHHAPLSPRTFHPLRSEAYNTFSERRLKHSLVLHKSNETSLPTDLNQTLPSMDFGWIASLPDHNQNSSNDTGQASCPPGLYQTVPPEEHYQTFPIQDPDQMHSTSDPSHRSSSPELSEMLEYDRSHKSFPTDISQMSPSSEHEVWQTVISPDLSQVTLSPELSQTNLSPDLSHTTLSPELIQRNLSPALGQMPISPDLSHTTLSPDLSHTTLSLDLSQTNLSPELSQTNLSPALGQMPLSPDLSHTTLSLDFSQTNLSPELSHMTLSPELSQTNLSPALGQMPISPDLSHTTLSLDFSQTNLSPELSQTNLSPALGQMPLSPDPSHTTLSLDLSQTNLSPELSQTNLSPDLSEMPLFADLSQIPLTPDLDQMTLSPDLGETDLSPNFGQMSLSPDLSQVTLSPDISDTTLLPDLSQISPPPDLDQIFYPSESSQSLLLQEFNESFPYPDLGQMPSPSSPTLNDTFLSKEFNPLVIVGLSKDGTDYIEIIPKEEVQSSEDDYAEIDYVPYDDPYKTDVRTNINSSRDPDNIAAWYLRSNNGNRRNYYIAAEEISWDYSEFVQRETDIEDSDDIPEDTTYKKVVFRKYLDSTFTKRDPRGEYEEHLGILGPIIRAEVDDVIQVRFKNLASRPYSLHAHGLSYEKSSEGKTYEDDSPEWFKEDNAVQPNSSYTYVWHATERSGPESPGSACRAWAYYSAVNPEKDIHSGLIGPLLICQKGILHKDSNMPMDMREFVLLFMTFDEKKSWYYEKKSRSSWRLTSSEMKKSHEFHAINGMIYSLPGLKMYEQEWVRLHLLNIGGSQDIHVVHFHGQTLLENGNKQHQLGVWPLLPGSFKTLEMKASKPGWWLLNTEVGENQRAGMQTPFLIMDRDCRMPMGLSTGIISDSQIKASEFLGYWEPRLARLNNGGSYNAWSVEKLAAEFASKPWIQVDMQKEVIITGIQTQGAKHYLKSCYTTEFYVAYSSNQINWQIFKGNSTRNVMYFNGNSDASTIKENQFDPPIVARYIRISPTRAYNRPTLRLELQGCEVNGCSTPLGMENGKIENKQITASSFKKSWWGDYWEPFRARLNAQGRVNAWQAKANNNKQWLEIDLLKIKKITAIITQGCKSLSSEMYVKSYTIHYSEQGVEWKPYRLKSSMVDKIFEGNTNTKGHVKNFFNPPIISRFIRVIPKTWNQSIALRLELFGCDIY

R506Q FVa (FVa Leiden, activated FV:Q506), P12259, sequence (P12259 29-2224 R534Q): as the sequence (P12259 29-2224) above, with R506Q counted along it

APTT clotting time in protein S deficient plasma with 20 nM APC, in absence of protein S [1] [s] | APTT clotting time in protein S deficient plasma with 20 nM APC, with protein S added [1] [s] | APTT clotting time in protein S deficient plasma with 20 nM APC, at the highest protein S concentration [2] [s] | APTT clotting time in protein S deficient plasma with 20 nM APC, in absence of protein S [2] [s] | Molecule | remaining FVa activity over time on incubation with 0.4 nM APC [3] | loss of FVa activity over time (FXa-mediated prothrombin activation assay) on incubation of 0.76 nM FVa with 0.39 nM APC [4]
160 | 350 | 150 | 100 | human protein S (from UniProt P07225 42-676) | – | –
– | – | – | – | human wild-type activated protein C (protein) chain 1: ANSFLEELRHSSLERECIEEICDFEEAKEIFQNVDDTLAFWSKHVDGDQCLVLPLEHPCASLCCGHGTCIDGIGSFSCDCRSGWEGRFCQREVSFLNCSLDNGGCTHYCLEEVGWRRCSCAPGYKLGDDLLQCHPAVKFPCGRPWKRMEKKRSHL chain 2: LIDGKMTRRGDSPWQVVLLDSKKKLACGAVLIHPSWVLTAAHCMDESKKLLVRLGEYDLRRWEKWELDLDIKEVFVHPNYSKSTTDNDIALLHLAQPATLSQTIVPICLPDSGLAERELNQAGQETLVTGWGYHSSREKEAKRNRTFVLNFIKIPVVPHNECSEVMSNMVSENMLCAGILGDRQDACEGDSGGPMVASFHGTWFLVGLVSWGEGCGLLHNYGVYTKVSRYLDWIHGHIRDKEAPQKSWAP | a slow decrease in FVa activity | the initial rapid loss of FVa activity that is observed during the first 5 minutes of incubation
